The supplement of paper PMC10567573

B1: IQUB (parent)
chain: EADYEDDSKIAFLMQLQDIQYLTE
B2: PDZK1 (parent)
chain: QKEQGLSDNILSPVMNGGVQTWTQ

Variants of: B1
Assay: protein stability index of a GFP-peptide fusion (GPS, HEK-293T) (PSI 1-6); higher = more stable
Conditions: c terminus: a fixed tail appended
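Also: lentivirally expressed fusions sorted by FACS into six bins by GFP to DsRed ratio, PSI derived from sequencing read proportions per bin multiplied by bin number.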

Protein stability index of substitutions, site by site:
S8: K 3.34 | F 1.89 | W 2.29 | D 3.62 | A 3.23 | H 3.44 | Y 2.34 | L 2.25 | P 2.6 | R 2.88 | E 3.21 | G 3.46 | N 3.53 | M 2.7 | C 2.29 | T 3.07 | V 2.6 | I 2.15 | Q 3.32
A11: H 2.97 | E 3.39 | D 4.07 | I 1.99 | K 3.4 | N 3.77 | W 2.78 | V 2.24 | L 2.12 | S 2.94 | Q 3.49 | P 3.82 | G 3.41 | M 2.66 | T 3.14 | F 2.38 | C 2.54 | R 2.83 | Y 2.02
E1: K 2.27 | F 1.99 | T 2.47 | H 3.29 | P 2.6 | Y 2.23 | G 2.79 | S 2.65 | N 2.85 | A 2.95 | I 2.09 | W 2.17 | R 2.44 | Q 2.76 | V 1.74 | D 3.56 | C 2.61 | L 2.75 | M 2.38
Y4: M 3.07 | Q 3.78 | F 3.16 | D 4.24 | I 3.21 | H 3.35 | L 3.51 | R 3.42 | N 4.01 | G 3.61 | S 3.65 | K 3.96 | T 3.66 | C 3.27 | P 4.15 | W 3.42 | E 4.09 | A 3.76 | V 3.18
I10: M 3.2 | V 3.42 | S 3.91 | F 2.9 | C 3.34 | E 4.43 | G 4.13 | N 4.17 | A 4 | P 4.53 | Q 4.12 | Y 2.76 | T 3.5 | L 3 | W 3.08 | H 4.29 | R 3.82 | D 4.35 | K 4.01
F12: P 4.75 | L 2.96 | M 4.05 | Q 4.78 | A 3.89 | N 4.33 | C 4.29 | H 4.62 | G 4.66 | K 4.51 | E 5.06 | D 5.07 | I 3.19
D6: Y 1.86 | T 2.25 | F 2.04 | L 1.53 | A 2.21 | I 2.21 | Q 2.57 | K 2.63 | S 2.7 | H 2.4 | E 2.88 | G 2.38 | C 2.68 | P 2.34 | V 2.17 | N 2.9 | W 1.83 | M 1.75 | R 2.09
D7: I 1.93 | Q 3.2 | L 1.89 | Y 2.18 | P 2.67 | E 3.14 | K 2.38 | M 2.03 | R 2.87 | W 2.33 | G 2.78 | N 2.19 | A 2.48 | C 1.88 | S 2.47 | H 2.98 | F 1.17 | T 2.19 | V 1.96
D3: N 2.87 | I 1.97 | E 2.88 | W 2.93 | A 2.1 | R 2.34 | L 2.02 | S 2.51 | Y 1.83 | C 1.69 | F 1.62 | M 2.03 | G 2.77 | T 2.48 | K 2.58 | Q 2.23 | V 2.51 | P 1.98 | H 2.17
E5: T 3.5 | S 2.24 | C 2.76 | D 3.42 | A 2.22 | N 3.12 | K 2.6 | P 2.79 | M 2.53 | G 2.49 | R 2.63 | I 2.29 | Y 2.27 | W 2.29 | H 2.62 | Q 2.62 | V 2.38 | L 2.43 | F 2.38
A2: W 2.17 | Y 2.08 | P 3.73 | V 2.99 | S 2.89 | T 2.93 | F 2.58 | K 2.89 | Q 2.36 | D 3.53 | R 2.44 | M 2.44 | N 3.41 | E 3.63 | G 2.71 | C 2.75 | L 3.46 | H 2.51 | I 2.99
K9: Q 3.21 | A 2.48 | H 3.36 | L 2.58 | E 3.39 | R 2.89 | N 3.08 | V 2.3 | D 3.63 | F 2.32 | P 2.9 | C 1.86 | I 1.83 | S 3.06 | G 2.81 | W 2.61 | Y 2.42 | T 2.64 | M 2.47

Variants of: B2
Assay: as above
Conditions: c terminus: a fixed tail appended

Protein stability index, by site and new letter:
W22: S 5.05 | A 4.41 | R 5.04 | I 4.88 | F 3.97 | M 4.55 | Q 5.24 | E 4.3 | K 4.93 | Y 4.09 | C 4.8 | N 5.08 | H 4.59 | D 4.78 | P 5.07
T23: D 3.67 | I 4 | V 1.56 | S 3.43 | G 3.5 | Q 2.16 | P 4.25 | F 3.02 | N 3.12 | K 3.39 | W 2.96 | R 3.42 | M 3.74 | Y 3.05
T21: C 2.66 | K 3.46 | R 3.23 | A 3.61 | Q 3.55 | W 2.82 | P 3.74 | E 3.71 | M 3.63 | L 2.68 | D 4.85 | N 3.65 | F 2.75
Q24: R 3.35 | E 3.43 | P 4.43 | I 2.36 | C 2.14 | D 3.13 | T 3.66 | F 1.78 | G 3.58 | K 3.55 | H 2.84 | S 1.68 | V 2.72 | M 2.26
G17: M 2.36 | W 1.85 | K 2.13 | L 2.8 | Y 2.5 | R 2.04 | V 3.6 | T 2.25 | S 3.31
Q20: K 3.8 | C 2.16 | E 1.58 | L 2.14 | I 2.49 | S 2.88 | G 3.02 | V 2.67 | Y 2.68 | W 3.36 | D 3.29 | T 3 | P 3.07 | F 2.68 | N 3.73 | A 3.69
G18: N 2.67 | S 2.65 | W 2.33 | I 2.61 | K 1.53 | M 2.58 | R 1.84 | E 2.56 | A 3.46 | C 2.54 | F 2.45 | P 3.46 | L 2.58 | D 3.35 | H 2.62 | Y 2.45 | V 2.47
V19: H 2.58 | E 3.7 | G 2.9 | P 3.44 | I 2.17 | F 2.42 | K 2.16 | D 4.3 | A 2.99 | R 1.85 | Y 1.86 | M 1.9 | N 2.6 | T 3.09
